US20240343823A1 (Ablynx, published 2024)

Experiments:
[1] = molecular target: T1, cyno GPC3 expressed on CHO Flp-In cells (cynomolgus); assay: flow cytometry on CHO Flp-In cyno GPC3 cells
T1 construct: range 3-559; On cells; also called cyGPC3 CHO; CHO-cGPC3

[2] = molecular target: T2, cyno serum albumin (in house produced from animal tissue) (cynomolgus); assay: SPR ProteOn XPR36, serum albumin immobilized by amine coupling, 1:1 model
T2 construct: also called cynomolgus serum albumin
Protocol: (§1) Serum albumin proteins were immobilized on a GLC Sensor Chip (Biorad) via amine coupling, using EDC and NHS chemistry (running buffer: HBS-EP+, pH 7.4). Purified ISVDs were injected for 2 minutes (flow rate 45 μL/min) at different concentrations (between 0.24 nM and 500 nM) and dissociation was followed for 900 s. Regeneration was performed by injecting 10 mM Glycine-HCl (pH 1.5) for 47 seconds (flow rate 100 μL/min). Data was double referenced by subtracting a reference ligand lane and a blank buffer injection. Processed sensorgrams were analyzed based on the 1:1 interaction model (Langmuir binding model) using ProteOn Manager 3.1.0 (Version 3.1.0.6) software.

[3] = molecular target: mouse serum albumin (DivBioScience cat no IMSA) (mouse, UniProt P07724 25-608); assay: as above
Protocol: as §1

[4] = molecular target: T3, human serum albumin (Sigma cat no A8763) (human, UniProt P02768 25-609); assay: as above
T3 construct: also called HSA
Protocol: as §1

[5] = molecular target: T4, human Glypican-6 (R&D systems, cat no 2845-GP) (human, UniProt Q9Y625 24-529, limits assumed); assay: ELISA, Glypican-6 coated at 2 ug/mL
T4 construct: Bought; also called GPC6
T4 sequence (looked up): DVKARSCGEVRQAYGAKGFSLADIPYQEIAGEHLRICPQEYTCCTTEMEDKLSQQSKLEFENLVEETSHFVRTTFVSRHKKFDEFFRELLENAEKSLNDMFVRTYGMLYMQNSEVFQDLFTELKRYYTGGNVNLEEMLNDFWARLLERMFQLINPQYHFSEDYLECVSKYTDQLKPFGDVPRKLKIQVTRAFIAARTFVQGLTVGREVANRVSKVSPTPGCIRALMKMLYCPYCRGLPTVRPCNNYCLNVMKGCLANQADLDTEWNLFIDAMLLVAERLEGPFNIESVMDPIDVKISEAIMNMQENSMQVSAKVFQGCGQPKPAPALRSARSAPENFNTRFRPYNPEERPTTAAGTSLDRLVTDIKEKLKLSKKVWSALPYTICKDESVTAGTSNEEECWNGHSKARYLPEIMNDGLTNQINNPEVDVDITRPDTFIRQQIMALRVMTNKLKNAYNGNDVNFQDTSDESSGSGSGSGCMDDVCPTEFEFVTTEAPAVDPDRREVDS
Protocol: (§2) Human GPC1 (R&D systems, cat no 4519-GP), human GPC2 (R&D systems, cat no 2304-GP), human GPC3 (R&D systems, cat no 2119-GP), human Glypican-5 (R&D systems, cat no 2607-G5) and human Glypican-6 (R&D systems, cat no 2845-GP) were directly coated overnight at 4° C. (2 μg/mL, 1×PBS buffer) on a 384-well HB SpectraPlate (PerkinElmer). The following day the plate was washed 6 times (AquaMax microplate washer, Molecular devices) and blocked with 1×PBS+1% Casein for 2 hours at room temperature. […] After 6 final wash steps the es(HS)TMB substrate (SDT) was added and the reaction stopped by addition of 1 M HCl after 10 minutes. The absorbance of the plate was measured at wavelengths 450 and 620 nm on the Clariostar instrument (BMG LABTECH) and the OD₄₅₀-OD₆₂₀ calculated and plotted for data analysis.

[6] = molecular target: T1, cyno GPC3 expressed on CHO Flp-In cells; assay: flow cytometry on cells expressing GPC3; lower end tied by Table 21 to CHO cyno GPC3
[7] = molecular target: T5, human GPC3 expressed on CHO Flp-In cells (human, UniProt P51654 25-554); assay: flow cytometry on CHO Flp-In human GPC3 cells
T5 construct: On cells; Q25-R358, S359-H580; also called hGPC3 CHO; CHO huGPC3

[8] = molecular target: T5, human GPC3 expressed on CHO Flp-In cells; assay: flow cytometry on cells expressing GPC3; upper end tied by Table 21 to CHO human GPC3
[9] = molecular target: T6, Human GPC1 (R&D systems, cat no 4519-GP) (human, UniProt P35052 24-530, limits assumed); assay: ELISA, GPC1 coated at 2 ug/mL
T6 construct: Bought
T6 sequence (looked up): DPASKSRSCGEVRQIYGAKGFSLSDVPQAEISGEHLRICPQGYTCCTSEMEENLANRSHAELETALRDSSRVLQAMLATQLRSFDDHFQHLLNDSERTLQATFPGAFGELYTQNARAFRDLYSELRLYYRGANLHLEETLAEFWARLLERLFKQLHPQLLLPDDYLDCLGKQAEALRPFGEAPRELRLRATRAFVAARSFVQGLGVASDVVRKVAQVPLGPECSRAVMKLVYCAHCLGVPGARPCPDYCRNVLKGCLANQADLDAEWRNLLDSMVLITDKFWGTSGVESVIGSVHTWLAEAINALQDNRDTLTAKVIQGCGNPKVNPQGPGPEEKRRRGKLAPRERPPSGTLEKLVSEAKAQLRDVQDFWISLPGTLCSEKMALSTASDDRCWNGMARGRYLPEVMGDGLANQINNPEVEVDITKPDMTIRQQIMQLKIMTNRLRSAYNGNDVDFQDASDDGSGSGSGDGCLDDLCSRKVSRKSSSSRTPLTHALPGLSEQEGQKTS
Protocol: as §2

[10] = molecular target: human GPC3 on tumor cell lines (HepG2, Huh-7, NCI-H661, MKN-45, NCI-H23, BxPC-3, NCI-H292) (human, UniProt P51654 25-554); assay: cell-based or functional assay

mouse serum albumin (DivBioScience cat no IMSA), sequence (P07724 25-608 limits assumed): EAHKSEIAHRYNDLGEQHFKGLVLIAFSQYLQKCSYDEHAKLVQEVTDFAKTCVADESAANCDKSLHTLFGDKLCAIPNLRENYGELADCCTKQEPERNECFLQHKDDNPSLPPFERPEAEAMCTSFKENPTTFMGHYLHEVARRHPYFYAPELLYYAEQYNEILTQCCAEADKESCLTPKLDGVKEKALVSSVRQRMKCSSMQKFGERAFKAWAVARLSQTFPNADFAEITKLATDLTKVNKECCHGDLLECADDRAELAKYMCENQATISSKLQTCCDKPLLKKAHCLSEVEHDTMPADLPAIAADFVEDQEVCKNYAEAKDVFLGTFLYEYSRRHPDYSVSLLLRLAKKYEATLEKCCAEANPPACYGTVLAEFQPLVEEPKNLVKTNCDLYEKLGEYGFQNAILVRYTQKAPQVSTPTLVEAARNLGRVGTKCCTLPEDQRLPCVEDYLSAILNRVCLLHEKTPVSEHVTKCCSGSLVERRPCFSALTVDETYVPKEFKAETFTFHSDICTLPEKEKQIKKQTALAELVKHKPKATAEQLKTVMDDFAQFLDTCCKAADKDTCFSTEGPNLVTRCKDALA
T2 sequence (A2V9Z4 25-608): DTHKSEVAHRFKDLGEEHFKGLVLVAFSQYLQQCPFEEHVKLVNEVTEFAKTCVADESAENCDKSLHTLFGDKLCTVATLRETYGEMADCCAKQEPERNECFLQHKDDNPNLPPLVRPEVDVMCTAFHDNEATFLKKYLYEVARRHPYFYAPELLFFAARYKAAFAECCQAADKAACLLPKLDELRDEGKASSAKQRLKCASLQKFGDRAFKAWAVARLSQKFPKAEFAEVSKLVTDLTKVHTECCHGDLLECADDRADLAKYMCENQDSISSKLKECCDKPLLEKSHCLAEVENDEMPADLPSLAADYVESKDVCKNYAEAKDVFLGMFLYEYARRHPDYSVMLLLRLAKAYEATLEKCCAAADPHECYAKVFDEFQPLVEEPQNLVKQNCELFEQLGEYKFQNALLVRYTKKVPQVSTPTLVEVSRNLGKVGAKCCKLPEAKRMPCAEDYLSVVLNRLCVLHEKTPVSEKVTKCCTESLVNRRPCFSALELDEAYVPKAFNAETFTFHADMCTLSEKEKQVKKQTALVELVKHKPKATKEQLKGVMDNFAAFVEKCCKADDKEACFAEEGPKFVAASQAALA

B1: A022600424 (other)
chain: DVQLVESGGGVVQPGGSLRLSCVASGYVHKINFYGWYRQAPGKEREKVAHISIGDQTDYADSAKGRFTISRDESKNTVYLQMNSLRPEDTAAYYCRALSRIWPYDYWGQGTLVTVSSGGGGSEVQLVESGGGVVQPGGSLRLSCAASGFTFSSFAMTWVRRPPGKGLEWVATITNKGVTSYADSVKGRFTISRDNAKNTLYLQMNSLRPEDTALYICANARRTGPRAPTDIGSYRGQGTLVTVSSGGGGSGGGSEVQLVESGGGVVQPGGSLRLSCAASGSIFRSVFSSSTMEWYRQAPGKKRELVARIAPGEGTYYGALYADSVKGRFTISRDNAKNTVYLQMNSLRPEDTALYYCASGVAWGQGTLVTVSSGGGGSGGGSEVQLVESGGGVVQPGGSLRLSCAASGFTFRSFGMSWVRQAPGKGPEWVSSISGSGSDTLYADSVKGRFTISRDNSKNTLYLQMNSLRPEDTALYYCTIGGSLSRSSQGTLVTVSSA
notes: Trispecific tetravalent ISVD (VHH) T-cell engager: anti-TCR, two anti-GPC3 (biparatopic), anti-albumin; also called TCE01-5GS-A022600351-9GS-A022600314-9GS-ALB23002-A
[1]
  EC50: 1.11 nM
[2]
  Kd: 0.33 nM
[3]
  Kd: 6.9 nM
[4]
  Kd: 0.83 nM
[5]
  binding result: no binding
[6]
  EC50: 1 to 2 nM
[7]
  EC50: 1.82 nM
[8]
  EC50: 1 to 2 nM
[9]
  binding result: no binding
[10]
  IC50 (M) BxPC-3, xCELLigence human TDC assay: > 1e-07 M
  IC50 (M) HepG2, xCELLigence human TDC assay: 1.15e-10 M
  IC50 (M) Huh-7, xCELLigence human TDC assay: 1.16e-10 M
  IC50 (M) NCI-H23, xCELLigence human TDC assay: > 1e-07 M
  IC50 (M) NCI-H661, xCELLigence human TDC assay: 1.14e-10 M
